39 molecules from patent US20220259593A1, “CONTROL OF MAMMALIAN GENE DOSAGE USING CRISPR” (The Regents of the University of California, priority 2019, published 2022) can be followed below.

To fix the notation:
B1: cr847 (nucleic acid)
guide: GTTTAAGAGCTAAGCTGGAAACAGCATAGCAAGCTTAAATAAGGCTAGTCCGTTATCAACTTGAAAAAGTGGCACCCAGTGGGTGCT
modifications: listed as DNA, chemistry not fully specified
B2: cr033 (nucleic acid)
guide: B1 guide with T4A, G7A, C34T, C77G, G81C
modifications: listed as DNA, chemistry not fully specified
B3: cr565 (nucleic acid)
guide: B1 guide with C34T, T61G, T62C, A67G, A68C, C77G, G81C
modifications: listed as DNA, chemistry not fully specified
B4: cr034 (nucleic acid)
guide: B1 guide with T2C, T3A, C34T, C77G, G81C
modifications: listed as DNA, chemistry not fully specified
B5: cr894 (nucleic acid)
guide: B1 guide with G33C, C34T, C60T, G69A, C77G, G81C
modifications: listed as DNA, chemistry not fully specified
B6: cr053 (nucleic acid)
guide: B1 guide with T2A, A5C, C34T, C77G, G81C
modifications: listed as DNA, chemistry not fully specified
B7: cr797 (nucleic acid)
guide: B1 guide with C34T, T54G, C77G, G81C
modifications: listed as DNA, chemistry not fully specified
B8: cr661 (nucleic acid)
guide: B1 guide with G29A, C34T, G52C, A66T, C77G, G81C
modifications: listed as DNA, chemistry not fully specified
B9: cr802 (nucleic acid)
guide: B1 guide with C34T, G43C, C51G, C60G, G69C, C75G, C77G, G81C, G83C
modifications: listed as DNA, chemistry not fully specified
B10: cr595 (nucleic acid)
guide: B1 guide with C34T, G43C, C77G, G81C
modifications: listed as DNA, chemistry not fully specified
B11: cr551 (nucleic acid)
guide: B1 guide with A26T, C34T, C77G, G81C
modifications: listed as DNA, chemistry not fully specified
B12: cr179 (nucleic acid)
guide: B1 guide with C34G, C76T, C77G, G81C, G82A
modifications: listed as DNA, chemistry not fully specified
B13: cr589 (nucleic acid)
guide: B1 guide with C34T, G43T, C45A, G48T, C51A, C77G, G81C
modifications: listed as DNA, chemistry not fully specified
B14: cr058 (nucleic acid)
guide: B1 guide with T4G, A5C, C34T, C77G, G81C
modifications: listed as DNA, chemistry not fully specified
B15: cr235 (nucleic acid)
guide: B1 guide with C34T, T61A, A65G, A68T, C77G, G81C
modifications: listed as DNA, chemistry not fully specified
B16: cr065 (nucleic acid)
guide: B1 guide with T3A, A6C, C34T, C77G, G81C
modifications: listed as DNA, chemistry not fully specified
B17: cr882 (nucleic acid)
guide: B1 guide with C34T, G63C, C77G, G81C
modifications: listed as DNA, chemistry not fully specified
B18: cr036 (nucleic acid)
guide: B1 guide with T2C, T4A, C34T, C77G, G81C
modifications: listed as DNA, chemistry not fully specified
B19: cr990 (nucleic acid)
guide: B1 guide with G29T, C57G, C77G, G81C
modifications: listed as DNA, chemistry not fully specified
B20: cr135 (nucleic acid)
guide: B1 guide with C34T, G43C, C51G, C60A, G69T, A74G, C77G, G81C, T84C
modifications: listed as DNA, chemistry not fully specified
B21: cr790 (nucleic acid)
guide: B1 guide with G33C, C34T, C77A, G81T
modifications: listed as DNA, chemistry not fully specified
B22: cr583 (nucleic acid)
guide: B1 guide with C34T, A41C, G52A, A58T, C77G, G81C
modifications: listed as DNA, chemistry not fully specified
B23: cr942 (nucleic acid)
guide: B1 guide with C34T, T56C, A66C, C77G, G81C
modifications: listed as DNA, chemistry not fully specified
B24: cr056 (nucleic acid)
guide: B1 guide with T3G, A5C, C34T, C77G, G81C
modifications: listed as DNA, chemistry not fully specified
B25: cr686 (nucleic acid)
guide: B1 guide with G33C, C34T, C77G, T80A, G81C
modifications: listed as DNA, chemistry not fully specified
B26: cr329 (nucleic acid)
guide: B1 guide with G33C, C34T, G43A, C51T, C77G, G81C
modifications: listed as DNA, chemistry not fully specified
B27: cr233 (nucleic acid)
guide: B1 guide with G33C, C34T
modifications: listed as DNA, chemistry not fully specified
B28: cr434 (nucleic acid)
guide: B1 guide with C34T, G63C, A65T, C77G, G81C
modifications: listed as DNA, chemistry not fully specified
B29: cr515 (nucleic acid)
guide: B1 guide with G18T, C34T, C77G, G81C
modifications: listed as DNA, chemistry not fully specified
B30: cr122 (nucleic acid)
guide: B1 guide with G33C, C34T, C57T, A65T, C77G, G81C
modifications: listed as DNA, chemistry not fully specified
B31: cr673 (nucleic acid)
guide: B1 guide with G33C, C34T, C77G, A78T, G81C
modifications: listed as DNA, chemistry not fully specified
B32: cr540 (nucleic acid)
guide: B1 guide with G33C, C34T, G43T, C51A, C77G, G81C
modifications: listed as DNA, chemistry not fully specified
B33: cr784 (nucleic acid)
guide: B1 guide with C34T, G43T, G44C, C50T, C77G, G81C
modifications: listed as DNA, chemistry not fully specified
B34: cr383 (nucleic acid)
guide: B1 guide with G33C, C34T, C77T, G81A
modifications: listed as DNA, chemistry not fully specified
B35: cr412 (nucleic acid)
guide: B1 guide with C34T, C60G, G69C, C77G, G81C
modifications: listed as DNA, chemistry not fully specified
B36: cr884 (nucleic acid)
guide: B1 guide with C34T, A59C, T62A, A67T, T70G, G72T, C77G, G81C, C86A
modifications: listed as DNA, chemistry not fully specified
B37: cr929 (nucleic acid)
guide: B1 guide with C34T, G72T, C77G, G81C
modifications: listed as DNA, chemistry not fully specified
B38: cr610 (nucleic acid)
guide: B1 guide with C34T, C60G, T61A, A68T, G69C, G72A, C77G, G81C, C86T
modifications: listed as DNA, chemistry not fully specified
B39: cr118 (nucleic acid)
guide: B1 guide with A23G, C34T, C77G, G81C
modifications: listed as DNA, chemistry not fully specified

Where a chain is given by its changes, count along the chain named.

For one data set, the system named is K562 CRISPRi cells. Kind of data set: Constant region variant library pooled growth screen, K562. Type of data set: cell-based, human. As to conditions: sgRNA constant region variants; activity relative to the original, un-modified constant region cr995. The essentials: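 Growth screens in K562 CRISPRi cells were harvested 4-8 days post-selection at >2000× library coverage. Each variant's phenotype was referenced to the unmodified constant region with the same targeting sequence.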
B1 displayed a Mean relative activity of −0.002682. Still for that read-out and setting: to B2 belongs −0.004656; to B3, 1.085; to B4, −0.007191. Molecule B5 had a Mean relative activity of −0.003408. The molecule B6 displayed a Mean relative activity of −0.003704. The same measure, in the same setting: to B7 belongs 1.027; to B8, −0.01151.

Molecule B9 displayed a Mean relative activity of −0.005377. With B10, the Mean relative activity is listed as −0.002984. Molecule B11 showed a Mean relative activity of −0.109.

B12 returned a Mean relative activity of −0.004493.

In turn, B13 came in with a Mean relative activity of −0.005108. B14 yielded a Mean relative activity of −0.003151. On the same count and under the same terms, the figure for B15 is 1.027; for B16 it is −0.003148. The same measure, in the same setting: to B17 belongs 1.027; to B18, −0.005679. B19 had a Mean relative activity of −0.0163. Same read-out and setting: to B20 belongs −0.00878; to B21, −0.01697; to B22, −0.01013. Still for that read-out and setting: the figure for B23 is 1.087; for B24 it is −0.009512; for B25 it is −0.004019.

As to B26, the Mean relative activity is −0.007607. In turn, B27 came in with a Mean relative activity of −0.003511. The molecule B28 yielded a Mean relative activity of 1.027. In turn, B29 returned a Mean relative activity of 1.027. Same read-out and setting: to B30 belongs −0.003408; to B31, −0.005072. Molecule B32 displayed a Mean relative activity of −0.0122. Molecule B33 came in with a Mean relative activity of −0.01213.

In turn, B34 registered a Mean relative activity of −0.005505.

Still in this data set, the particulars now being: sgRNA constant region variants; relative to the original, un-modified constant region cr995 (= 1).
Molecule B35 had a Mean relative activity of 1.025. Same read-out and setting: the figure for B36 is 1.027; for B37 it is 1.025; for B38 it is 1.027. Still for that read-out and setting: to B39 belongs 1.025.
